Reference: patent US20260226187A1 (BIOATLA, published 2026)

Key:
Assay in all cases: cell-based or functional assay
[1] = biological target: T1, Human EpCAM expressed on cells (CHO-hEpCAM, HCT116) (human, UniProt P16422 24-314)
T1 sequence (looked up): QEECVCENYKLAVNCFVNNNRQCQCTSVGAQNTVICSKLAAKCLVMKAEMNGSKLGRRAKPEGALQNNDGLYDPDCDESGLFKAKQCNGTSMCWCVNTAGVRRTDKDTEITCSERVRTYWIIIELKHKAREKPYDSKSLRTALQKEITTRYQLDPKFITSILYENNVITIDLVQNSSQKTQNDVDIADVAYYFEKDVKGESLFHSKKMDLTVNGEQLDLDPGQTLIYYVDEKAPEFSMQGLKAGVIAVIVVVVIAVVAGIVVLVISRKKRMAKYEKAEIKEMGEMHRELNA

[2] = biological target: T1, Human EpCAM expressed on cells …; remark: listed apart in the source
[3] = biological target: T1, Human EpCAM expressed on cells …; remark: listed apart in the source
[4] = biological target: Cynomolgus EpCAM expressed on CHO cells (cynomolgus monkey)
[5] = biological target: T1, Human EpCAM expressed on cells …; remark: listed apart in the source
[6] = biological target: Cynomolgus EpCAM expressed on CHO cells (cynomolgus monkey); remark: listed apart in the source

Cynomolgus EpCAM expressed on CHO cells (cynomolgus monkey), sequence (Q1WER1 24-314): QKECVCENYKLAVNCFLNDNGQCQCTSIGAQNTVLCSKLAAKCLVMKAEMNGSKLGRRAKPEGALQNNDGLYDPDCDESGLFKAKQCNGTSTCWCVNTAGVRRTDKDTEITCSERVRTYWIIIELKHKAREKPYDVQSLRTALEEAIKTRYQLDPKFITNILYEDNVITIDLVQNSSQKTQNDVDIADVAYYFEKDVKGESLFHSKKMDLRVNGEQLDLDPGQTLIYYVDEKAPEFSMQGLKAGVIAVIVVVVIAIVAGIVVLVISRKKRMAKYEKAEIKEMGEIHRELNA

B1: BA3182 (bispecific antibody, human IgG1, kappa, N297Q)
light: DIQMTQSPSSLSASVGDRVTITCSASSSISYMHWYQQKPGQAPRLLIYSTSNLASGVPSRFSGSGSGTDFTFTISSLEAEDAATYYCHQWSTYHTFGQGTKVEIKRTVAAPSVFIFPPSDEQLKSGTASVVCLLNNFYPREAKVQWKVDNALQSGNSQESVTEQDSKDSTYSLSSTLTLSKADYEKHKVYACEVTHQGLSSPVTKSFNRGECSRSGGGGEVQLVESGGGLVQPGGSLRLSCAASGFTFNTYAMNWVRQAPGKGLEWVARIRSKYNNYATYYADSVKDRFTISRDDSKNSLYLQMNSLKTEDTAVYYCVRHSNFGNSKVSWFAYWGQGTLVTVSSGGSGGSGGSGGSGGQAVVTQEPSLTVSPGGTVTLTCRSSAGAVTTSNYDNWVQQKPGQAPRGLIGGTNKRAPWTPARFSGSLLGGKAALTITGAQAEDEADYYCALWYSNLWVFGGGTKLTVLSR
heavy: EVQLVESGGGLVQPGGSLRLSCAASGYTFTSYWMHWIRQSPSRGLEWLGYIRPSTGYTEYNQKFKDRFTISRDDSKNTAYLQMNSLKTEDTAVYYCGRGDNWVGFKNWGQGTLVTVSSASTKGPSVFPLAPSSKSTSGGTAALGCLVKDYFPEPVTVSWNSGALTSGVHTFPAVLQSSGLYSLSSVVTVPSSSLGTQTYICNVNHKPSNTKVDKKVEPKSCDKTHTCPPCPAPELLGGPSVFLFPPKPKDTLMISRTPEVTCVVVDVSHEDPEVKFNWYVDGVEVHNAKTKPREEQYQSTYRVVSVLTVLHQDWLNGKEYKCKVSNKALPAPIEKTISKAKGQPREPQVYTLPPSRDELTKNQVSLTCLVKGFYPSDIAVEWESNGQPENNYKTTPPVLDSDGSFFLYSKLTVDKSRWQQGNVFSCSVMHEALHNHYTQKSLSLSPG
notes: Human IgG1,k aglycosylated mutant (N297Q) with an anti-CD3 scFv on the C-terminus of each light chain; 200 kDa used for molar concentrations; also called BAP150.31-BF45; BA150.31-BF45
[1]
  EC50 IL-2 release, human PBMC co-cultured with HCT116, pH 6.5, donor 3371: 4.56 nM
  EC50 IL-2 release, human PBMC co-cultured with HCT116, pH 6.5, donor 3378: 7.85 nM
  EC50 IL-2 release, human PBMC co-cultured with HCT116, pH 6.5, donor 3397: 9.82 nM
  EC50 IL-2 release, human PBMC co-cultured with HCT116, pH 6.5, donor 3411: 4.92 nM
  EC50 IL-2 release, human PBMC co-cultured with HCT116, pH 6.5, donor 75377: 23.2 nM
  EC50 IL-2 release, human PBMC co-cultured with HCT116, pH 6.5, donor 77535: 19.7 nM
  EC50 IL-2 release, human PBMC co-cultured with HCT116, pH 6.5, donor 85639: 25.6 nM
  EC50 IL-2 release, human PBMC co-cultured with HCT116, pH 6.5, donor 97529: 15 nM
  EC50 INFγ release, human PBMC co-cultured with HCT116, pH 6.5, donor 3371: 5.28 nM
  EC50 INFγ release, human PBMC co-cultured with HCT116, pH 6.5, donor 3378: 6.45 nM
  EC50 INFγ release, human PBMC co-cultured with HCT116, pH 6.5, donor 3397: 10.1 nM
  EC50 INFγ release, human PBMC co-cultured with HCT116, pH 6.5, donor 3411: 2.54 nM
  EC50 INFγ release, human PBMC co-cultured with HCT116, pH 6.5, donor 75377: 2.53 nM
  EC50 INFγ release, human PBMC co-cultured with HCT116, pH 6.5, donor 77535: 24 nM
  EC50 INFγ release, human PBMC co-cultured with HCT116, pH 6.5, donor 97529: 2.52 nM
[2]
  EC50, T cell activation bioassay (NFAT luminescence), CHO hEpCAM cells, pH 6.0, Experiment-1: 0.051 nM
  EC50, T cell activation bioassay (NFAT luminescence), CHO hEpCAM cells, pH 6.0, Experiment-2: 0.049 nM
  EC50, T cell activation bioassay (NFAT luminescence), CHO hEpCAM cells, pH 6.0, Experiment-3: 0.048 nM
  EC50, T cell activation bioassay (NFAT luminescence), CHO hEpCAM cells, pH 7.4, Experiment-1: 0.358 nM
  EC50, T cell activation bioassay (NFAT luminescence), CHO hEpCAM cells, pH 7.4, Experiment-2: 0.387 nM
  EC50, T cell activation bioassay (NFAT luminescence), CHO hEpCAM cells, pH 7.4, Experiment-3: 0.403 nM
[3]
  EC50, T cell activation bioassay (NFAT luminescence), HCT116 cells, pH 6.0, Experiment-1: 0.292 nM
  EC50, T cell activation bioassay (NFAT luminescence), HCT116 cells, pH 6.0, Experiment-2: 0.288 nM
  EC50, T cell activation bioassay (NFAT luminescence), HCT116 cells, pH 6.0, Experiment-3: 0.238 nM
  EC50, T cell activation bioassay (NFAT luminescence), HCT116 cells, pH 7.4, Experiment-1: 1.86 nM
  EC50, T cell activation bioassay (NFAT luminescence), HCT116 cells, pH 7.4, Experiment-2: 2.15 nM
  EC50, T cell activation bioassay (NFAT luminescence), HCT116 cells, pH 7.4, Experiment-3: 1.96 nM
[4]
  EC50, cytolysis of CHO cynoEpCAM cells by cyno PBMC, pH 6.5, Experiment-1: 18.9 pM
  EC50, cytolysis of CHO cynoEpCAM cells by cyno PBMC, pH 6.5, Experiment-2: 15.9 pM
  EC50, cytolysis of CHO cynoEpCAM cells by cyno PBMC, pH 6.5, Experiment-3: 17.4 pM
  EC50, cytolysis of CHO cynoEpCAM cells by cyno PBMC, pH 7.4, Experiment-1: 172 pM
  EC50, cytolysis of CHO cynoEpCAM cells by cyno PBMC, pH 7.4, Experiment-2: 215 pM
  EC50, cytolysis of CHO cynoEpCAM cells by cyno PBMC, pH 7.4, Experiment-3: 167 pM
[5]
  EC50, cytolysis of HCT116 cells by human PBMC, pH 6.5, donor 13143: 1.66 pM
  EC50, cytolysis of HCT116 cells by human PBMC, pH 6.5, donor 13290: 1.03 pM
  EC50, cytolysis of HCT116 cells by human PBMC, pH 6.5, donor 13292: 2.05 pM
  EC50, cytolysis of HCT116 cells by human PBMC, pH 6.5, donor 13371: 0.79 pM
  EC50, cytolysis of HCT116 cells by human PBMC, pH 6.5, donor 13397: 1.19 pM
  EC50, cytolysis of HCT116 cells by human PBMC, pH 6.5, donor 13411: 1.39 pM
  EC50, cytolysis of HCT116 cells by human PBMC, pH 6.5, donor 75377: 0.6 pM
  EC50, cytolysis of HCT116 cells by human PBMC, pH 6.5, donor 77535: 1.52 pM
  EC50, cytolysis of HCT116 cells by human PBMC, pH 6.5, donor 85639: 0.88 pM
  EC50, cytolysis of HCT116 cells by human PBMC, pH 6.5, donor 97529: 2.95 pM
  EC50, cytolysis of HCT116 cells by human PBMC, pH 7.4, donor 13143: 8.73 pM
  EC50, cytolysis of HCT116 cells by human PBMC, pH 7.4, donor 13290: 4.37 pM
  EC50, cytolysis of HCT116 cells by human PBMC, pH 7.4, donor 13292: 6.35 pM
  EC50, cytolysis of HCT116 cells by human PBMC, pH 7.4, donor 13371: 6.96 pM
  EC50, cytolysis of HCT116 cells by human PBMC, pH 7.4, donor 13397: 5.9 pM
  EC50, cytolysis of HCT116 cells by human PBMC, pH 7.4, donor 13411: 1.36 pM
[6]
  EC50, T cell activation bioassay (NFAT luminescence), CHO cynoEpCAM cells, pH 6.0, Experiment-1: 0.545 nM
  EC50, T cell activation bioassay (NFAT luminescence), CHO cynoEpCAM cells, pH 6.0, Experiment-2: 0.597 nM
  EC50, T cell activation bioassay (NFAT luminescence), CHO cynoEpCAM cells, pH 6.0, Experiment-3: 0.586 nM
  EC50, T cell activation bioassay (NFAT luminescence), CHO cynoEpCAM cells, pH 7.4, Experiment-1: 9.46 nM
  EC50, T cell activation bioassay (NFAT luminescence), CHO cynoEpCAM cells, pH 7.4, Experiment-2: 8.82 nM
  EC50, T cell activation bioassay (NFAT luminescence), CHO cynoEpCAM cells, pH 7.4, Experiment-3: 10.7 nM
